Tests used:
[1] = target: T1, Human Rac1 (residues 1-177), GMPPNP-loaded (human, UniProt P63000 1-177); assay: ITC; 10 °C, GMPPNP-loaded Rac1 (average)
[2] = target: T1, Human Rac1 (residues 1-177), …; assay: ITC; 15 °C, GMPPNP-loaded Rac1 (average)
[3] = target: T1, Human Rac1 (residues 1-177), …; assay: ITC; 15 °C
[4] = target: T1, Human Rac1 (residues 1-177), …; assay: ITC; 35 °C, GMPPNP-loaded Rac1 (average)

B1: POSH_(315-380), shorter construct of human POSH comprising MRE1 and MRE2 (domain or fragment)
chain: GHMWSQASQNRHSMEISPPVLISSSNPTAAARISELSGLSCSAPSQVHISTTGLIVTPPPSSPVTTGPSF
[1]
  Kd: 26.8 µM
[2]
  Kd: 20.2 µM
[3]
  Kd: 21.6 µM
[4]
  Kd: 21.7 µM

From PMC12728182 (2025)
